Laboratory results: US11994512B2, “Single-cell genomic methods to generate ex vivo cell systems that recapitulate in vivo biology with improved fidelity” (Massachusetts Institute of Technology, priority 2018, dated 2024)

Test system: intracellular proteome of ENR+CD and ENR organoids
Assay: LC-MS/MS TMT proteomics of ENR+CD versus ENR organoids
Format: cell-based, C57BL/6 mice

B1: Q3UHD3 (protein, UniProt Q3UHD3 1-1353, looked up)
chain: MSVPLAPKKSCFGQLRDHREGAKNNNESILRTGDTNANQIMLEVSSSCDEAKSRDLDDELGNSNLSRPQYHSHFQKEPLHLQGFGKGSQAGSTSQRESQASLTVHRQLSEEHAVKRGALQAPQCVQGPSLSSWRNAVGQASPEASAKKDAEIPRHIPKDKLAKTLDNEELKRASSCSAAAGSVPPTDLQPVQLDTLGPQDHVPARGEGPQRTPASHSPGKGFSPGEGTSEGNSVYLPKPSTSEAKGSSPSDTKMEGPHGLDVYNERITHAELTPSSASASKENPGLRHPEVCLGQGTGKSKVELKSVQPRNEEGLTSAQAQGPGCHEERSMSPVERQELLEKAYREATSQGNSSHRQLGVRRGSSLEEMTGVSAGVEGSQQATPTLSAAPAGEAGTRLTGKMSAGVGRMARETASGQTAPDVGQAAPVRRDPTESVPSEVSGEERRLGSGNSGSTKLLASGPSAGGSRTDTSGLLSPRGSNLEARKGKEMVAENRNLLENAAQTDNTPAGVDSAFSTPAPLLHPETTVNSSHHPTPPGSSSQELGVFSGDTGSPSVASPPTDGGQVLNTSPKVPDRTTCSSGIPKPPTHPKDTPSSQEAREKLETEKMEERAEAKPILMPKPKHVRPKIITYIRRNPQALSQGDASLVPVGLPYAPPTCGMPLPQEEKAASRDLQPSANMYEKLKPDLQKPRVFPSGLMVSGIKPPAHHFSQMSEKFLQEVADHPGKEEFCSPPYTHYEVPPTFYRSAMLLKPQLGLGAMSRLPSTKSRILIASQRSSASAIHPPGSLTTAASFYGSDPSDLKKASNSNAAKASLPKSGLRPPGYSRLPAAKLAAFGFVRSSSISAVPSSQSLDSVQPEQSRPVTRSTFGNEEQAPLKQALPSKDTPKGAGRAAPASSSNATTPRRSLLPAPKSTSTPAGAKKELQKDPEAKKPAVSSPKRTASAATKPHSPGYPKQRTSAPRNEFPPKPDLQAREAERQLAQRLRDRCEWQARQLGLARRELKKAIQGFDALAVSTKHFFGKSERALAKEKELSIELANIRDEVAFNTAKCEKLQKEKETLERRFEEELRRLGWQQQAEVQELQERLQQQFQAESARLQAEHQDQLLRMRCQHQEQVEDITASHEAALLEMENNHTVAITILQDDHDHKVQELMSTHEFEKKELEENFEKLRLTLQDQVDTLTFQSQSLRDRARRFEEALRKTTEEQLEIALAPYQHLEEDMQSLKQVLEMKNQQIHLQEKKIIELEKLVEKNIILEERIQVLQQQNEDLKARIDQNTVVTRQLSEENANLQEYVEKETQEKKRLSRTNEELLWKLQTGDPTSPIKLSPTSPVYRGSSSGPSSPARVSTTPR
modifications: full-length
Average logFC (protein abundance, ENR+CD versus ENR organoids, aggregate of the four sample pairs): 1.47 | M1-1 Log2 Median Normalized (protein abundance, ENR+CD versus ENR organoids, replicate M1-1, log2 ratio): 1.347 | M1-2 Log2 Median Normalized (protein abundance, ENR+CD versus ENR organoids, replicate M1-2, log2 ratio): 0.087 | M2-1 Log2 Median Normalized (protein abundance, ENR+CD versus ENR organoids, replicate M2-1, log2 ratio): 1.7985 | M2-2 Log2 Median Normalized (protein abundance, ENR+CD versus ENR organoids, replicate M2-2, log2 ratio): 2.649 | change (up = enriched in ENR+CD, down = enriched in ENR, FDR<0.05 and log fold change cut-off): up
